Reference: patent US20220016205A1, “METHODS OF OVERCOMING RESISTANCE TO IMMUNE CHECKPOINT INHIBITORS” (Board of Regents, The University of Texas System, priority 2018, published 2022)

Legend:
[1] = test system: RAW 264.7 cells; assay: qPCR in RAW 264.7 cells co-cultured with 344SQR cells (transwell) with follistatin or K02288; type: cell-based, murine; conditions: 344SQR co-culture plus follistatin versus 344SQR co-culture only, 24 or 48 hours (FIG. 3I)
Excerpt: Quantitative polymerase chain reaction (qPCR). Total RNA was isolated from cells and tumors with Triazol (Life Technologies) according to the manufacturer's protocol. For studies of BMP7, p38α, IL-1α, IL-1β, TNF-α, RANTES, IL-2, and IFN-γ expression, mRNA was retrotranscribed with the iScript™ gDNA Clear cDNA Synthesis Kit (BioRad) and analyzed by qPCR using SYBR Green (Life Technologies) with specific primers according to the manufacturer's protocol. The comparative Ct method was used to calculate the relative abundance of mRNAs compared with ACTB (beta-actin) expression for cancer cells or CD45 expression for immune cells.
Co-culture experiments and treatments. Viable cells were counted with a hemocytometer (0.4% Trypan blue solution) and diluted to 40,000 cells per well in 24-wells plates. Cells from 344SQP, 344SQR, 344SQ ctrl, or 344SQ-shBMP7 tumors were seeded at the top inserts (24-mm Transwell with 0.4-μm pore polycarbonate membrane insert, Sigma-Aldrich), and RAW 264.7 or CD4^+ T cells were seeded at the bottom of the transwell system. […] RNA was then isolated from RAW 264.7 or CD4^+ T cells and analyzed for p38α, IL-1α, IL-1β, TNF-α, RANTES, IL-2 and IFN-γ expression with qPCR. […]

[2] = test system: peritoneal macrophages; assay: qPCR in peritoneal macrophages co-cultured with 344SQR cells (transwell) with follistatin or K02288; type: cell-based, mouse; conditions: 344SQR co-culture plus follistatin versus 344SQR co-culture only, 24 or 48 hours (FIG. 3J)
[3] = test system: 344SQR tumors; assay: Tumor growth and survival of mice with anti-PD1-resistant 344SQR tumors treated with follistatin, anti-PD1 or both; type: in vivo, 129Sv/Ev mice; conditions: follistatin 0.1 mg/kg i.p. (with or without anti-PD1 10 mg/kg), 2 weeks
Experimental: In vivo studies. All mouse studies were approved by the Institutional Animal Care and Use Committee (IACUC) of The University of Texas MD Anderson Cancer Center before their initiation; animal care was provided according to IACUC standards, and all mice had been bred and were maintained in our own specific pathogen-free mouse colony. For RRBS, RPPA and TILs studies, primary tumors were established by subcutaneous injection of 344SQP or 344SQR cells (0.5×10^6 in 100 μL of sterile phosphate buffered saline [PBS]) into the leg of syngeneic 129Sv/Ev mice (female, 12-16 weeks old). Mice were then given intraperitoneal injections of anti-PD1 or control IgG antibodies (10 mg/kg) (Bio X cell), starting on day 4 after tumor cell inoculation and continuing twice per week for a total of 4 doses. At 24 hours after the last anti-PD1 treatment, tumor tissues were collected for DNA (2 mice/group) and protein isolation (2 or 3 mice/group). For TILs isolation, tumor tissues (3 mice/group) were collected a week after the last treatment with anti-PD1. […] Tumors were measured with calipers three times per week and recorded as tumor volume (in mm^3)=width^2×length/2. […] Mouse survival rates were analyzed by using the Kaplan-Meier method and compared with log-rank tests.

B1: follistatin: BMP7 antagonist protein, natural inhibitor of BMP7 (R&D Systems, Catalog #769-FS-025) (protein, UniProt P19883 30-344, looked up)
Follistatin: GNCWLRQAKNGRCQVLYKTELSKEECCSTGRLSTSWTEEDVNDNTLFKWMIFNGGAPNCIPCKETCENVDCGPGKKCRMNKKNKPRCVCAPDCSNITWKGPVCGLDGKTYRNECALLKARCKEQPELEVQYQGRCKKTCRDVFCPGSSTCVVDQTNNAYCVTCNRICPEPASSEQYLCGNDGVTYSSACHLRKATCLLGRSIGLAYEGKCIKAKSCEDIQCTGGKKCLWDFKVGRGRCSLCDELCPDSKSDEPVCASDNATYASECAMKEAACSSGVLLEVKHSGSCNSISEDTEEEEEDEDQDYSFPISSILEW
- expression of p38a and p38α-regulated cytokines and chemokines [1]: higher expression
- expression of p38a and p38α-regulated cytokines and chemokines [2]: higher expression
- tumor growth ([3]; compared with anti-PD1 therapy only (FIG. 5C)): decreased tumor growth
- survival ([3]; compared with anti-PD1 therapy only, Kaplan-Meier (FIG. 5C)): extended survival
